From the Human Domainome abundance scans (Beltran et al. 2025)
± gives the uncertainty stated by the source.

Assay: abundance fitness (aPCA) (normalised: wild type 0, dead -1); higher = more abundant; growth selection in yeast, the domain comes from the species named
[1] = Saccharomyces cerevisiae (strain ATCC 204508 / S288c)

Row | Substance | abundance fitness [1] | abundance fitness (Homo sapiens)
1 | E3 ubiquitin-protein ligase RSP5 V360W, P39940 | -0.06 ± 0.069 | –
2 | E3 ubiquitin-protein ligase RSP5 V360Y, P39940 | 0.194 ± 0.084 | –
3 | E3 ubiquitin-protein ligase RSP5 W337A, P39940 | -0.649 ± 0.06 | –
4 | E3 ubiquitin-protein ligase RSP5 W337C, P39940 | -0.4 ± 0.087 | –
5 | E3 ubiquitin-protein ligase RSP5 W337D, P39940 | -0.504 ± 0.074 | –
6 | E3 ubiquitin-protein ligase RSP5 W337E, P39940 | -0.525 ± 0.066 | –
7 | E3 ubiquitin-protein ligase RSP5 W337F, P39940 | -0.045 ± 0.093 | –
8 | E3 ubiquitin-protein ligase RSP5 W337G, P39940 | -0.503 ± 0.051 | –
9 | E3 ubiquitin-protein ligase RSP5 W337H, P39940 | -0.539 ± 0.076 | –
10 | E3 ubiquitin-protein ligase RSP5 W337I, P39940 | -0.23 ± 0.085 | –
11 | E3 ubiquitin-protein ligase RSP5 W337K, P39940 | -0.713 ± 0.073 | –
12 | E3 ubiquitin-protein ligase RSP5 W337L, P39940 | -0.53 ± 0.06 | –
13 | E3 ubiquitin-protein ligase RSP5 W337N, P39940 | -0.641 ± 0.14 | –
14 | E3 ubiquitin-protein ligase RSP5 W337P, P39940 | -0.883 ± 0.061 | –
15 | E3 ubiquitin-protein ligase RSP5 W337Q, P39940 | -0.637 ± 0.11 | –
16 | E3 ubiquitin-protein ligase RSP5 W337R, P39940 | -0.771 ± 0.052 | –
17 | E3 ubiquitin-protein ligase RSP5 W337S, P39940 | -0.622 ± 0.052 | –
18 | E3 ubiquitin-protein ligase RSP5 W337Y, P39940 | -0.366 ± 0.1 | –
19 | E3 ubiquitin-protein ligase RSP5 W359C, P39940 | -0.336 ± 0.085 | –
20 | E3 ubiquitin-protein ligase RSP5 W359D, P39940 | -0.225 ± 0.059 | –
21 | E3 ubiquitin-protein ligase RSP5 W359E, P39940 | -0.271 ± 0.071 | –
22 | E3 ubiquitin-protein ligase RSP5 W359G, P39940 | -0.441 ± 0.045 | –
23 | E3 ubiquitin-protein ligase RSP5 W359I, P39940 | -0.258 ± 0.1 | –
24 | E3 ubiquitin-protein ligase RSP5 W359K, P39940 | -0.446 ± 0.11 | –
25 | E3 ubiquitin-protein ligase RSP5 W359L, P39940 | -0.203 ± 0.066 | –

Row | Substance | abundance fitness [1] | abundance fitness (Homo sapiens)
26 | E3 ubiquitin-protein ligase RSP5 W359N, P39940 | -0.198 ± 0.091 | –
27 | E3 ubiquitin-protein ligase RSP5 W359P, P39940 | -0.447 ± 0.059 | –
28 | E3 ubiquitin-protein ligase RSP5 W359Q, P39940 | -0.278 ± 0.08 | –
29 | E3 ubiquitin-protein ligase RSP5 W359R, P39940 | -0.265 ± 0.067 | –
30 | E3 ubiquitin-protein ligase RSP5 W359S, P39940 | -0.249 ± 0.049 | –
31 | E3 ubiquitin-protein ligase RSP5 W359T, P39940 | -0.342 ± 0.055 | –
32 | E3 ubiquitin-protein ligase RSP5 W359V, P39940 | -0.416 ± 0.045 | –
33 | E3 ubiquitin-protein ligase RSP5 W359Y, P39940 | 0.171 ± 0.08 | –
34 | E3 ubiquitin-protein ligase RSP5 Y348A, P39940 | -0.936 ± 0.073 | –
35 | E3 ubiquitin-protein ligase RSP5 Y348C, P39940 | -0.574 ± 0.09 | –
36 | E3 ubiquitin-protein ligase RSP5 Y348D, P39940 | -0.879 ± 0.091 | –
37 | E3 ubiquitin-protein ligase RSP5 Y348E, P39940 | -0.664 ± 0.062 | –
38 | E3 ubiquitin-protein ligase RSP5 Y348F, P39940 | -0.146 ± 0.09 | –
39 | E3 ubiquitin-protein ligase RSP5 Y348G, P39940 | -0.796 ± 0.043 | –
40 | E3 ubiquitin-protein ligase RSP5 Y348H, P39940 | -0.699 ± 0.16 | –
41 | E3 ubiquitin-protein ligase RSP5 Y348K, P39940 | -0.666 ± 0.072 | –
42 | E3 ubiquitin-protein ligase RSP5 Y348L, P39940 | -0.504 ± 0.068 | –
43 | E3 ubiquitin-protein ligase RSP5 Y348M, P39940 | -0.354 ± 0.092 | –
44 | E3 ubiquitin-protein ligase RSP5 Y348P, P39940 | -1.17 ± 0.086 | –
45 | E3 ubiquitin-protein ligase RSP5 Y348Q, P39940 | -0.637 ± 0.054 | –
46 | E3 ubiquitin-protein ligase RSP5 Y348R, P39940 | -0.919 ± 0.049 | –
47 | E3 ubiquitin-protein ligase RSP5 Y348S, P39940 | -0.738 ± 0.077 | –
48 | E3 ubiquitin-protein ligase RSP5 Y348T, P39940 | -0.686 ± 0.087 | –
49 | E3 ubiquitin-protein ligase RSP5 Y348V, P39940 | -0.585 ± 0.048 | –
50 | E3 ubiquitin-protein ligase RSP5 Y348W, P39940 | -0.147 ± 0.049 | –

Row | Substance | abundance fitness [1] | abundance fitness (Homo sapiens)
51 | Transcription factor SOX-4 A121T, Q06945 | – | -0.009 ± 0.06
52 | Transcription factor SOX-4 D102T, Q06945 | – | -0.149 ± 0.05
53 | Transcription factor SOX-4 D125N, Q06945 | – | -0.045 ± 0.22
54 | Transcription factor SOX-4 E79V, Q06945 | – | -0.476 ± 0.13
55 | Transcription factor SOX-4 E88V, Q06945 | – | -0.649 ± 0.066
56 | Transcription factor SOX-4 I72D, Q06945 | – | -0.595 ± 0.46
57 | Transcription factor SOX-4 I77L, Q06945 | – | -0.126 ± 0.055
58 | Transcription factor SOX-4 I89L, Q06945 | – | -0.098 ± 0.036
59 | Transcription factor SOX-4 I106R, Q06945 | – | -0.209 ± 0.042
60 | Transcription factor SOX-4 K60R, Q06945 | – | -0.294 ± 0.066
61 | Transcription factor SOX-4 K95Q, Q06945 | – | 0.115 ± 0.14
62 | Transcription factor SOX-4 K101T, Q06945 | – | -0.029 ± 0.065
63 | Transcription factor SOX-4 L99A, Q06945 | – | 0.041 ± 0.062
64 | Transcription factor SOX-4 M78A, Q06945 | – | -0.006 ± 0.058
65 | Transcription factor SOX-4 M84L, Q06945 | – | 0.014 ± 0.055
66 | Transcription factor SOX-4 M120L, Q06945 | – | -0.047 ± 0.082
67 | Transcription factor SOX-4 R75K, Q06945 | – | 0.07 ± 0.046
68 | Transcription factor SOX-4 R92M, Q06945 | – | 0.128 ± 0.11
69 | Transcription factor SOX-4 R96S, Q06945 | – | -0.162 ± 0.17
70 | Transcription factor SOX-4 S70A, Q06945 | – | 0.014 ± 0.057
71 | Transcription factor SOX-4 S81N, Q06945 | – | 0.007 ± 0.056
72 | Transcription factor SOX-4 S103L, Q06945 | – | -0.454 ± 0.082
73 | Transcription factor SOX-4 Y123H, Q06945 | – | -0.03 ± 0.12
